1 protein from paper PMC5750462 (Emerging Microbes & Infections, 2017) can be followed below.

The series deals with the molecule itself. The series is described as follows: BLI; […] (PBS, 0.01% BSA, 0.002% Tween-20); […]. (In BLI a coated tip is dipped into the sample, and binding shifts an interference pattern.)

B1: recombinant N1-165-domain of wild-type (wt) matrix protein 1 (M1), influenza A virus A/WSN/33 (domain or fragment)
chain: MSLLTEVETYVLSIVPSGPLKAEIAQRLEDVFAGKNTDLEVLMEWLKTRPILSPLTKGILGFVFTLTVPSERGLQRRRFVQNALNGNGDPNNMDKAVKLYRKLKREITFHGAKEIALSYSAGALASCMGLIYNRMGAVTTEVAFGLVCATCEQIADSQHRSHRQM
Regarding B1, the binding result was “binds”.
